The supplement of paper PMC9170038

tested on: K4 kissing-loop RNA reporter; experiment: apparent KD of K4 kissing-loop reporter; higher = weaker reporter binding; settings: Eterna round: R107; input ligand: none
Description: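 RNA-MaP round R107: designed RNA switches with theophylline, tryptophan, arginine or FMN aptamers are transcribed on-chip within common flanks. They are titrated with a labelled K4 kissing-loop RNA reporter in RNA-MaP buffer (100 mM Tris pH 7.5, 80 mM KCl, 4 mM MgCl2), without ligand or with the indicated ligand. Median apparent KD per design.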
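Note: bound reporter read as fluorescence of individual clusters on recovered sequencing chips by microscopy, with normalized cluster intensities fitted with a binding model.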

Sequence	apparent KD of K4 kissing-loop reporter
GGAUAGGACAGAGGAUAUGGUAGUGAUGUUACCAAACUGGUUAUCAAUGUUAGAAAAUUGACAAAACCAGAAGGCUGUCCUAUCG [KL-XFMN-B15]	67.8 nM
AUUUAAUGUAUAGAUUAUAUACAUUAUUCAGAGGAUAUGCAUUGAAGCAGAAGGCUGGGUGUAGUGAUGUUGCAGUUUUAAUUUA [whbob_SS_FMNA__2th173]	152 nM
GGCACUACAGCGGCCGCCACUGUUUAGUCCAUCGCUUGCGAGUGAUGUUCGUAGGUACUGCAGCUCAGGACCGGGCUGUCCUUAC [theeternabot_sameState_KL_Trp_B_34]	471 nM
GCCUACGAUGCAGGAUAUAGCUCGCGAGUGAUGUUCGCAGCUGUAUGGUAGUAAGCUUCCACGUGUCUAGAAGGGCAUCGUAGGC [#01 K4 FMN B Exclusion]	93.6 nM
AAAUAAAGCAGUCACCCAGUGAUGUUGGAAGGAGCGUGCGAAAGCACAGGUAGGUCGCCGAUAAGGACAAAGUCCAGUGGCUGCA [#SwitchBubble 28 #K4Early]	595 nM
AAAUUUAUAUUAGAUACCAGUUUAAUGGAUGUAAAUUAUGACAUGAGUGAUGUUCAUGUAAGCCCUUGGCAGCUGGUAUGGGUUU [KL-XTheo-B21]	121 nM
AUGCGCGUGCGAUGGAAAUCGCACGCGCAUCGAGGACCGGUACGGCCGCCACUCGCUCGCGCCGAGUGAUGUUCGGCCGGCGAAC [#2 SameState - Tryptophan_A Attempt #3 (HarryS)]	283 nM
AUGACUCAAUAGUGAGUGAUGUUCACUGGACGAGGACCGGUACGGCCGCCACUCGAGAGUGGUGGACACUGUGUCACUGAGUCAU [Tryp A Ex t1]	154 nM
AAACGUUGGUGCGAUACCAGCUGGUCGGAAACGACCUUGCUGGAGUGAUGUUCCAAGUAAAGCCCUUGGCAGCGCACCGACGAAA [MAT - Same State Theophlline B - Mod of Eli - D23]	43.2 nM
AUACAGCGAAGCGCUAGUGAUGUUAGCGAAGGAGCGACUCAGGAGUCAGGUAGGUCGCGCUAAACAGGUUACGAGAGUAACCAGU [Arg A Ex t1]	140 nM
CGGGAUGUUAAAGGAUAUAGCAGGUGAUACAAGAAAGUGAGUGAUGUUUAUGUAGAUGAUGAUAUGUUAGAAGGUUAACAAAACG [abcdefghijkl]	908 nM
UUACCAAGUGAUGUUUGGAAAUAUCCUAGGCAGGAUAUGCGGAAACGCAGAAGGGCCACCUUCUAGUGAAGGAAACUUCGCUAUU [Ex FMN A 3]	272 nM
GCUAUGGUAGGAAGGAGCGCUUACUCAUUAAUAAGAGUGAUGUUCGAUAAUGAGUAUUUAUAGCAGGUAGGUCGCCUACUAUAGC [Arginine B K4 3]	270 nM
AGGAUCCGUCGACAAAAGUCGACAUAAGCCAAGGAUAUGACGAAAGUCAGAAGGUGGUCAUAAGACCAGUGAUGUUGGUGGAUCC [FmnA 13 #SwitchBubble #K4Late]	526 nM
GCGCUUAAAUAAGGAUAUUACAGACUCAUCUACGAGUGAUGUUCGGUGCGCUGUGCACAGAGCCUGUAAGAAGGUAUAGCAUUGC [theeternabot_sameState_KL_FMN_B_41]	1180 nM
UUUAGGAGUGGUGUUGAUUAGGGAGCGGAAGGAGCGCCGAGGAAGGCAGGUAGGUCGCCGGAUUAUAGUGAUGUUAUGAAGAGGG [ExArg.M]	792 nM
UGUGAGCUGUCGACAAAAGUCGACUAAAACUAGGAUAUGACGAAAGUCAGAAGGAGUCAAUAAUGGAGUGAUGUUCCUGCUCACU [FmnA 9 U31+A55]	414 nM
GGGCGCGGCGCGGCCGCCACUGCGCCUGGGUGCUCGCUGAGUGAUGUUCGUCGGCGGUUGGGUGGUAGGACCGGGUGCUGGCCGG [BDazzled - #13 SS Tryptophan B]	525 nM
UUUUAAAUAUCUGAUACCAGAGCGAAUAUAUGUAGUGAUGUUAUAUACAAAAUAAAUAAGCUCCCUUGGCAGCAGUAUUAAUUUU [Astros-ExyTheB#?#ED14.66]	919 nM
CCCUAUAUAUGCAGUGAUGUUGCAACUGAUACCAGUAUCGAAAGAUACCCUUGGCAGCGGAAAACCGCUACGUAAUUUAAUAGGG [Ex Theophylline A K4 21]	419 nM
ACCGCAUUGGGAUGAUCCCAAUGCGCUGGUCGAGGACCGGUACGGCCGCCACUCGUCCAGUGAUGUUGGAAUUGGGCUACUGAAG [KL-XTryp-A11]	183 nM
GGCAUGGUGACGCGGCGGCCAUGCACUUGGGAGGAUAUGUUUCGUGACAGAAGGCCCAGUGAUGUUGGGUCUGUUCAAAAGGACU [Riteveat]	192 nM

same assay, conditions: Eterna round: R107; input ligand: theophylline 20 uM

Sequence	apparent KD of K4 kissing-loop reporter
UAAGAAUAAGAUGCAGUGAUGUUGCAUCUACGAGGACCGGUACGGCCGCCACUCGAGGUCCUCGAACUGCAUCAGAGGACAAUAA [(H,1)-(H,2)-(Trp1)-(Trp2)-(T)'-(H)'-(T)'']	390 nM
AAAAUAAAUAGCAGUCAUGGAGUGAUGUUCCGAGGACCGGUACGGCCGCCACUCGACCAUCAUAAGAUGGAUGGCGAAGACUGCA [#SwitchBubble 24 #K4Early]	445 nM
GGACACUAGGAAACUAGUGUCUCAACUGAAGGAGCGUGAAUAGUCACAGGUAGGUCGCAGUUUGUUAGUGAUGUUGACAUGAGUU [#16 K4 Arginine A Same State]	439 nM
UGAUACCAGACGGCCGCCACUGCACCAGUCAAUGACUGAGUGCGGUAGUGCUCAGUGAUGUUGAGUAGGACCGGGUCUGGUAUCU [Mod of Eli's TrypBX 8 v3]	130 nM
UUUAUUAAGACGGCCGCCACUGAAUCAUAGUGAUGUUAUGAUAUAAUUUUAGUGAUUUUGAUUAGCAGGACCGGGUCAAUUAUUA [#26 K4 Tryptophan B Exclusion]	139 nM
